Experimental data reported in patent US20090022717A1 (CHEMOCENTRYX, published 2009).

T1: CXCR2 (UniProt P25025 1-360, limits assumed)
T1 construct: whole, on cells
T1 sequence (looked up): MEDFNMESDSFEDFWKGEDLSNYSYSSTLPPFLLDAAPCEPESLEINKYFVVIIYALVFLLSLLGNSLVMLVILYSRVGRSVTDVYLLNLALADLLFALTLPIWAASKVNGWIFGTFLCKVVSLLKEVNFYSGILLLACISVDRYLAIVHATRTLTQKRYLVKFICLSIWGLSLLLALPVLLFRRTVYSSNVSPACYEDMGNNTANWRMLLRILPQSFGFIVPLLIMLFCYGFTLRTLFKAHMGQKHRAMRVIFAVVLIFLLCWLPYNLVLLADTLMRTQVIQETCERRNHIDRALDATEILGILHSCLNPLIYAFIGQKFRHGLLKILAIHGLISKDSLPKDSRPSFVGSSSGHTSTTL

B1: monoclonal antibody 6E10 (antibody, V domains shown)
VH: EVKLDETGGGLVQPGRPMKLSCVASGFTFSDYWMNWVRQSPEKGLEWVGQIRNKPYNYETYYSDSVKGRFTISRDDSKSSVYLQMNNLRTEDTGIYYCTSLRYWGQGTLVTVSA
VL: DIVMTQSPSSLTVTAGEKVTMSCKSSHSLLNSGIQKNFLTWYQQKPGQPPKVLIYWAFTRESGVPERFTGSGSGTDFTLTISSVQAEDLAVYYCQSDYTYPFTFGSGTKLEIKR
notes: Mouse hybridoma monoclonal raised by gene gun immunisation with CXCR7 cDNA
B2: monoclonal antibody 11G8 (antibody, V domains shown)
VH: EVKLVESGGDLVQPGGSLKLSCATSGFTFSDYYMFWVRQTPEKRLEWVAYITNGGDRSYYSDTVTGRFIISRDNAKNTLYLQMSRLKSEDTAMYYCARQGNWAAWFVYWGQGTLVTVSA
VL: DVLMTQTPLSLPVSLGDQASISCRSSHYIVHSDGNTYLEWYLQKPGQSPKLLIYKVSNRFSGVPDRFSGSGSGTDFTLKISRVEAEDLGIYYCFQGSHVPLTFGAGTKLELKR
notes: as for B1

What was measured:
monoclonal antibody 6E10 = biological target: B1; assay: peptide competition of antibody staining of CXCR7-expressing cells, FACS
Method: (§1) We have established that both 11G8 and 6E10 antibodies recognize CXCR7 receptor expressed on the surface of cells by FACS. This is represented as an increase in florescent signal (filled) over background (open line) along the X axis of FACS plot (FIG. 2). To interrogate which amino acid residues 11G8 and 6E10 recognize and bind to, a number of short peptides (0.5-5 μg) derived from the CXCR7 sequence were pre-incubated with either antibody (0.5-5 μg) in 100 μl PBS. This mixture was then incubated with 500,000 cells expressing CXCR7 for 15 minutes at room temperature. If the antibody recognized the sequence encoded by the peptide, then the peptide would effectively compete antibody away from binding to the cell associated receptor resulting in a subsequent reduction in florescence on a FACS plot. […] These readouts are exemplified in FIG. 2 with “no peptide” representing […] antibody staining, “peptide 2.2.1” representing peptide competition, and “peptide 2.3.4” representing no peptide competition. Through slight alternations of the peptide sequence in this assay, the minimal peptide sequence necessary for antibody recognition was discerned. FIG. 3 illustrates a summary of peptides that competed with either antibody 11G8 or 6E10.

human CXCR7 = biological target: T2, human CXCR7 (human, UniProt P25106 1-362); assay: flow cytometry on CXCR7 transfectants (HEK 293) and on HeLa and MCF-7 cells
T2 construct: also called RDC1; CCX-CKR2
T2 sequence (P25106 whole entry): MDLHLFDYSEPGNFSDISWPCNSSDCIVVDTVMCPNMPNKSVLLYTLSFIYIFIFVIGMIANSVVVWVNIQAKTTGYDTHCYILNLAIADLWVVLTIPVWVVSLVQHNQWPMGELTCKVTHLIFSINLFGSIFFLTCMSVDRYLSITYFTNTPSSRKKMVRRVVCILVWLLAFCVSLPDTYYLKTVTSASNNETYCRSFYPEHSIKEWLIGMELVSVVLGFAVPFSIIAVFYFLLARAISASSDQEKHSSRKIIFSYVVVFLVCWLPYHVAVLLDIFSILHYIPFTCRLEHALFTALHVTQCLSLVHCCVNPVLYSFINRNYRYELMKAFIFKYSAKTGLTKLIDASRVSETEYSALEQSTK

mouse CXCR7 = biological target: T3, mouse CXCR7 (mouse, UniProt P56485 1-362); assay: detection on mouse 4T1 mammary tumor cells and Lewis lung carcinoma cells
T3 construct: whole, on cells; Endogenous on the mouse mammary tumor line 4T1 and on Lewis lung carcinoma cells; also E13 fetal mouse sections; also called mouse homolog of CXCR7
T3 sequence (P56485 whole entry): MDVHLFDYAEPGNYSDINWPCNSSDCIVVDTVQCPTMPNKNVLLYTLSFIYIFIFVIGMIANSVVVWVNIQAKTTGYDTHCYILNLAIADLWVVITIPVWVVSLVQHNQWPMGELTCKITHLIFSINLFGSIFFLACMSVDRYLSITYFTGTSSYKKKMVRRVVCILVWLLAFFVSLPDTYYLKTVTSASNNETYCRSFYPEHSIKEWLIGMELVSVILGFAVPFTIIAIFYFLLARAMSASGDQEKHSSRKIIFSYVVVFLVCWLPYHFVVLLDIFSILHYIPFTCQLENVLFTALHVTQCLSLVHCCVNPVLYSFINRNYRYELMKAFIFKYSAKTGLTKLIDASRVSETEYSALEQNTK

CXCR2 = biological target: T1, CXCR2; assay: flow cytometry on transfected HEK 293 cells
monoclonal antibody 11G8 [1] = biological target: B2; assay: peptide competition of antibody staining of CXCR7-expressing cells, FACS
Method: as §1

monoclonal antibody 11G8 [2] = biological target: B2; assay: peptide pre-incubated with antibody, then FACS staining of CXCR7-expressing cells (FIG. 2, 11G8 on 435-CXCR7 cells)
Method: as §1

Row | binding result (monoclonal antibody 6E10) | binding result (monoclonal antibody 11G8 [1]) | Binder | also measured
1 | binds | – | SWPCNSSDCIVV (also called Peptide 2.1.2) [SEQ ID NO 9] | –
2 | binds | – | NWPCNSSDCIVV (also called Peptide 2.2.6) [SEQ ID NO 17] | –
3 | – | – | B1 | binding result (human CXCR7): binds; binding result (mouse CXCR7): binds; binding result (CXCR2): no binding
4 | – | binds | YSDINWPC (also called Peptide 2.2.3) [SEQ ID NO 14] | –
5 | binds | – | DISWPCNSSDCI (also called Peptide 2.1.1) [SEQ ID NO 8] | –
6 | binds | binds | FSDISWPCNSSDCIVVD (also called Peptide 2) [SEQ ID NO 2] | –
7 | – | binds | FSDISWPC (also called Peptide 2.2.1) [SEQ ID NO 12] | –
8 | – | binds | DYSEPGNFSDISWPC (also called Peptide 9C4) [SEQ ID NO 11] | –
9 | binds | – | WPCNSSDCIVV (also called Peptide 2.2.5) [SEQ ID NO 16] | –
10 | – | binds | NFSDISWP (also called Peptide 2.3.1) [SEQ ID NO 18] | –
11 | – | – | B2 | binding result (human CXCR7): binds; binding result (mouse CXCR7): binds; binding result (CXCR2): no binding
12 | – | – | PCNSSDCIV [peptide 2.3.4] | binding result (monoclonal antibody 11G8 [2]): no binding
